This note sets out measurements from doi:10.1101/2025.11.06.686519 (bioRxiv, 2025).

Assay [1] addresses single site-biotinylated PR8 HA (as loaded on streptavidin biosensors for BLI) (influenza virus strain A/Puerto Rico/8/1934 (PR8)) (UniProt P03452). Briefly: BLI; Octet RED96; […]; association 300 s, dissociation 600 s; global fit 1:1. A general note: BLI is a label-free optical method that tracks binding on a fibre tip over time.
Assay [2] addresses PR8 HA as used for cryo-EM with Fabs (Influenza A virus A/Puerto Rico/8/1934 …, UniProt P03452). The experiment in a line: cryo-EM structure. The note with it: both partners purified.
For assay [3], the target named is recombinant hemagglutinin (HA) from influenza virus strain A/Puerto Rico/8/1934 (PR8), cysteine-crosslinked, … (Influenza A virus A/Puerto Rico/8/1934 …, UniProt P03452). The experiment in a line: ELISA. The settings on record: both partners purified. For orientation: An ELISA detects its analyte on a solid surface through an enzyme-linked reagent.
recombinant hemagglutinin (HA) from influenza virus strain A/Puerto Rico/8/1934 (PR8), cysteine-crosslinked, …, sequence (P03452 18-338): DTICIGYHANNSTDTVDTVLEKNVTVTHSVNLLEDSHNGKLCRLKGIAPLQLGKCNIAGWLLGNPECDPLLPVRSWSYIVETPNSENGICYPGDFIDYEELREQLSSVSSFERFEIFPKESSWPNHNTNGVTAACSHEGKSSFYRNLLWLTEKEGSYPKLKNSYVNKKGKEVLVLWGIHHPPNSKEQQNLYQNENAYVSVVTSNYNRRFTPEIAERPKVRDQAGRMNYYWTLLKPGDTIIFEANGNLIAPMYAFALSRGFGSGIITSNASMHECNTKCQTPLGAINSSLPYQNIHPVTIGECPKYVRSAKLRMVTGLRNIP

PR8 HA as used for cryo-EM with Fabs, sequence (P03452 18-338): as above
single site-biotinylated PR8 HA (as loaded on streptavidin biosensors for BLI) (influenza virus strain A/Puerto Rico/8/1934 (PR8)), sequence (P03452 18-338): as above

B1: Fab Cb (Fab 73.1) (Fab, V domains shown)
VH: QVQLQQSGAELVRPGTSVKISCKASGYTFSNYWLGWLKQRPGHGLEWIGDIYPGGGYTNYNEKLKGKATLTADTSSSTAYMQLSSLTSEDSAVYFCARPRYGDYWYFDVWGAGTTVTVSS
VL: VHSALMAASPGEKVTITCSVSSSISSSNLHWYQQKSETSPKPWIYGTSNLASGVPVRFSGSGSGTSYSLTISSMEAEDAATYYCQQWSSYPLTFGAGTKLELK
In general, Kd refers to the constant that tells how readily two partners part at equilibrium. B1 yielded an equilibrium dissociation constant (Kd) in assay [1] of 30 nM. For the same molecule, in assay [2], the binding result is “binds”.

B2: mAb 73.1 (clone Cb), recombinant monoclonal antibody (antibody, V domains shown)
VH: B1 VH
VL: B1 VL
notes: copies: 2 + 2
On to B2, for which, in assay [3], the binding result is on record as “binds”.
